Data from US20030175712A1 (published 2003).
Numbering of substitutions follows the chain as printed.

T1: Cdc24-m1p (1-288 aa), GAL4 two-hybrid fusion (S. cerevisiae, UniProt P11433 1-288)
T1 construct: also called cdc24-m1 (1-288)
T1 sequence: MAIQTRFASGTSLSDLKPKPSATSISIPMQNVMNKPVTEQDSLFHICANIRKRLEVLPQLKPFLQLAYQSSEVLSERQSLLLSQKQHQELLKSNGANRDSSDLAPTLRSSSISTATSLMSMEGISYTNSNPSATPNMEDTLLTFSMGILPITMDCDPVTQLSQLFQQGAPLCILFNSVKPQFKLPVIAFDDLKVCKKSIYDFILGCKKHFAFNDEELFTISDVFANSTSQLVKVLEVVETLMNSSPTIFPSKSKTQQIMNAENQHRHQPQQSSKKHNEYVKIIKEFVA

T2: Cdc24-m3p (1-288 aa), GAL4 two-hybrid fusion (S. cerevisiae, UniProt P11433 1-288)
T2 sequence: T1 sequence with F189P

T3: GSTCdc24p (1-127 aa) (S. cerevisiae, UniProt P11433 1-127)
T3 construct: not shown: glutathione-S-transferase as encoded by pGEX-2T (Pharmacia)
T3 sequence (looked up): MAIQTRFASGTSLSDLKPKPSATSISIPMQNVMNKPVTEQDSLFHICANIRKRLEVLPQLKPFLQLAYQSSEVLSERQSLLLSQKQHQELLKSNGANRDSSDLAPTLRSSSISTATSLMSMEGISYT

B1: Ste4p, GAL4 two-hybrid fusion (other, not shown: small tags and cut ends)
chain: MAHQMDSITYSNNVTQQYIQPQSLQDISAVEEEIQNKIEAARQESKQLHAQINKAKHKIQDASLFQMANKVTSLTKNKINLKPNIVLKGHNNKISDFRWSRDSKRILSASQDGFMLIWDSASGLKQNAIPLDSQWVLSCAISPSSTLVASAGLNNNCTIYRVSKENRVAQNVASIFKGHTCYISDIEFTDNAHILTASGDMTCALWDIPKAKRVREYSDHLGDVLALAIPEEPNLENSSNTFASCGSDGYTYIWDSRSPSAVQSFYVNDSDINALRFFKDGMSIVAGSDNGAINMYDLRSDCSIATFSLFRGYEERTPTPTYMAANMEYNTAQSPQTLKSTSSSYLDNQGVVSLDFSASGRLMYSCYTDIGCVVWDVLKGEIVGKLEGHGGRVTGVRSSPDGLAVCTGSWDSTMKIWSPGYQ
notes: also called Gβ
B2: His6Ste4p (other)
chain: B1 chain
notes: Expressed in E. coli; migrates as a doublet due to proteolysis; also called Hexahistidine-tagged Ste4p; pTrcSte4; not shown: hexahistidine tag with the leader of the pTrc vector

Tests used:
[1] = target: T1, Cdc24-m1p (1-288 aa), GAL4 two-hybrid …; assay: yeast two-hybrid, growth on -leu-trp-his
Procedure: (§1) Plasmids were transformed into HF7c. For determination of STE18 requirement, PCR-based geene disruption was carried out in PJ69-4A (MATa, trp1-901, leu2-3,112, ura3-52, his3-200, gal4D, gal80D, GAL2-ADE2, LYS2::GAL1-HIS3, met2::GAL7-lacZ)²⁹, replacing the entire STE18 ORF with K. Lactis URA3³⁰. For all two-hybrid experiments, equal amounts of transfonnants were spotted on SC-leu-trp and SC-leu-trp-his plates, identical results were obtained with at least four transformants, and for Dste18 two independent deletion strains. All strains for two-hybrid analyses expressed similar amounts of AD- and DBD- fusion proteins of the expected sizes, as determined by SDS-PAGE and immuno-blotting.
(§2) cdc24-m mutants are defective in mating and Ste4p (Gβ) binding. a, Location of Cdc24p mating mutations. Mating patches show diploids from mating with MATa WT tester. Ste4 2-H patch growth on -leu-trp-his indicates an interaction of Cdc24p (1-288 aa) with Ste4p. Similar results were obtained using a LacZ reporter in strain Y187 (relative Miller Units 100 for Cdc24/Ste4 and 3 for Cdc24-m1/Ste4). b, Two hybrid interactions of Cdc24p. Fror interactions with Ste4p, a fragment of Cdc24p (1-288 aa) was used, however, fill length Cdc24p also interats with Ste4p. c, Region of Cdc24p necessary for Ste4p interaction. […]

[2] = target: T2, Cdc24-m3p (1-288 aa), GAL4 two-hybrid …; assay: yeast two-hybrid, growth on -leu-trp-his
Procedure: as §1, §2

[3] = target: T4, Cdc24p (1-160 aa) fused to GAL4 DBD (S. cerevisiae, UniProt P04386 1-147; P11433 1-160); assay: yeast two-hybrid, Cdc24p fragments fused to DBD
T4 construct: also called amino-terminal fragment consisting of the first 160 amino acid residues
Procedure: as §1, §2

GSTCdc24p (1-127 aa) = target: T3, GSTCdc24p (1-127 aa); assay: GSH-agarose pull-down from mixed bacterial extracts, immunoblot
Procedure: (§3) A fragment of CDC24 (1-472 aa) in pGEX-2T (Pharmacia) and His₆Ste4p (pTrcSte4) were expressed in E. coli. Cells were resuspended in buffer A (PBS, 0.1% TX-100, Phenyl Methyl Sulfonyl Fluoride (PMSF), leupeptin, chymostatin, pepstatin, aprotinin) and lysed by snap freezing in liquid nitrogen followed by sonicatioin. Insoluble material was removed by centrifuigation (10,000 g). Mixed supernatants (denoted cell extracts) containing His₆Ste4 and GSTCdc24 fusions were incubated with GSH-agarose (Sigma Chemical Co.) at 4° for 1 hr. Resin was washed 3 times with buffer A. Resin samples (referred to as eluates) and extracts were analyzed by SDS-PAGE, immuno-blottinig probed with Omni-probe anti-sera (Santa Cruz), and visualised with enhanced chemiluhniuescence (Amershan).
as §2

GST = target: T5, GST (UniProt P08515 1-218 = GST); assay: as above
T5 construct: Control; also called GST alone; glutathione-S-transferase
T5 sequence (P08515 whole entry): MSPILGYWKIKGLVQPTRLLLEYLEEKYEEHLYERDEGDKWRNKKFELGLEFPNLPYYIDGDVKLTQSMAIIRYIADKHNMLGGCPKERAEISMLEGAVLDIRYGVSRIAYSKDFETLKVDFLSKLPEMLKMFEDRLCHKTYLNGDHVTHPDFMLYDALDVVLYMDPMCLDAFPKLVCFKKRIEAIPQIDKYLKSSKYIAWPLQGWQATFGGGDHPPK
Procedure: as §3, §2

Binder | binding result [1] | binding result [2] | binding result [3] | binding result (GSTCdc24p (1-127 aa)) | binding result (GST)
B1 | no binding | no binding | no binding | – | –
B2 | – | – | – | no binding | no binding
